Test results reported in paper PMC3961674.

Biological target: variant 92787 (77405 N-terminally fused to wild-type ubiquitin carrying an S57C substitution) (human) (UniProt P0CG48)
Assay: affinity chromatography; 92787 coupled to SulfoLink resin (1 ml columns); 200 μg of 67B89 spiked into 2 ml of PBS, NHDF cell lysate or serum, washed with PBS pH 7.4, eluted with PBS pH 2.2; fractions on SDS-PAGE

67B89 (ED-B domain of fibronectin flanked by its N-terminal domains 6 and 7 and C-terminal domains 8 and 9), sequence (P02751 1080-1541): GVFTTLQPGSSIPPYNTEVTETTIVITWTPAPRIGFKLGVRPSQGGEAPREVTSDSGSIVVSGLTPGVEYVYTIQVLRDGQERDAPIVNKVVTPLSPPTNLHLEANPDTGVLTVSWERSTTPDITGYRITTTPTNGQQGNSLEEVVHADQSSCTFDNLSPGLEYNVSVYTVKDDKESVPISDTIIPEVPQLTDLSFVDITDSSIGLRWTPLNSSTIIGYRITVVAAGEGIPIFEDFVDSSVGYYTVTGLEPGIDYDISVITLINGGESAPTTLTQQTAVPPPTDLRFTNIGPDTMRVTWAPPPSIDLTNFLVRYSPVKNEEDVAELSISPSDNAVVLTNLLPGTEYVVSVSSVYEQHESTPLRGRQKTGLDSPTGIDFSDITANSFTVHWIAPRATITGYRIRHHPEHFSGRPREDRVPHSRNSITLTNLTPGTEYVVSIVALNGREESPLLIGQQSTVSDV

A percent of applied 67B89 recovered from the 92787 resin of over 85% was found for “67B89 (ED-B domain of fibronectin flanked by its N-terminal domains 6 and 7 and C-terminal domains 8 and 9) (from UniProt P02751-7 1080-1541) (domain or fragment)” in this work.
